Experimental data: article PMC9482650, “Quantitative fragmentomics allow affinity mapping of interactomes” (Nature Communications, 2022)

T1: MPDZ_12, O75970
T1 sequence (O75970 1857-1958, limits assumed, looked up): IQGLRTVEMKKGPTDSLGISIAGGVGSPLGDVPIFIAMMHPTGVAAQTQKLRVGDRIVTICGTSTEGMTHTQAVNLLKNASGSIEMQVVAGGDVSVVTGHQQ

T2: SNTG2, Q9NY99
T2 sequence (Q9NY99 68-166, limits assumed, looked up): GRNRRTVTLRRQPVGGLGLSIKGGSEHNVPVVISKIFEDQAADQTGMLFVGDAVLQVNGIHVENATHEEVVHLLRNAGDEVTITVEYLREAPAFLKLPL

T3: LRRC7, Q96NW7
T3 sequence (Q96NW7 1440-1537, limits assumed, looked up): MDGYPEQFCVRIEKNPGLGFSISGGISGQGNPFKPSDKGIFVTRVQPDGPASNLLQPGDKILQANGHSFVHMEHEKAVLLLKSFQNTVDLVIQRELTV

T4: SHANK1, Q9Y566
T4 sequence (Q9Y566 658-767, limits assumed, looked up): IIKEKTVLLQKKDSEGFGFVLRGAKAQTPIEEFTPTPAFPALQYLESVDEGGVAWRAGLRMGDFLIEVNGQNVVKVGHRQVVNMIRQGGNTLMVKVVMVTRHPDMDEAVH

T5: TJP3_3, O95049
T5 sequence (O95049 375-456, limits assumed, looked up): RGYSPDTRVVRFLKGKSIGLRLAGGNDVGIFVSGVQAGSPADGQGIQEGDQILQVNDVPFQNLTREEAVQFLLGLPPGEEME

T6: DFNB31_1, Q9P202
T6 sequence (Q9P202 135-233, limits assumed, looked up): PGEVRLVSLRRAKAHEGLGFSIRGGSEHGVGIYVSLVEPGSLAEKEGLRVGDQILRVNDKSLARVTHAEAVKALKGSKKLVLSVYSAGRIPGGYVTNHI

T7: RHPN1, Q8TCX5
T7 sequence (Q8TCX5 508-602, limits assumed, looked up): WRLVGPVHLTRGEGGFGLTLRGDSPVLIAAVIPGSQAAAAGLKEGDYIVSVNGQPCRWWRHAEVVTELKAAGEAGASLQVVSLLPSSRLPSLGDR

T8: LIN7C, Q9NUP9
T8 sequence (Q9NUP9 88-185, limits assumed, looked up): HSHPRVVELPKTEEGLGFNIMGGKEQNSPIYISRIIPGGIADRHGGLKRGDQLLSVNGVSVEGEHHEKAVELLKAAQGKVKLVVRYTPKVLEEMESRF

T9: SYNJ2BP, P57105
T9 sequence (P57105 8-110, limits assumed, looked up): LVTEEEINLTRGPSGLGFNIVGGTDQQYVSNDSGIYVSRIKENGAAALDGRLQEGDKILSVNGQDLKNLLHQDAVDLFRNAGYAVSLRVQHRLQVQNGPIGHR

B1: ABCA2, Q9BZC7 (peptide)
chain: QLSFNTDTLC
B2: TECPR2, O15040 (peptide)
chain: EDLEDEWEVI
B3: PRKACA, P17612 (peptide)
chain: EKCGKEFSEF

These binders were tested against Inadl_10, Q8NI35 (assay: holdup assay). Details: plain residues with an end cap or a label only (N-terminal biotin on a linker: ado-ado).
Sequence of Inadl_10, Q8NI35 (Q8NI35 1673-1763): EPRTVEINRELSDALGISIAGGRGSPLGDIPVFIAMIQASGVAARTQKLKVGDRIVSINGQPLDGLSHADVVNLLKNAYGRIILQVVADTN
Set-up: key: below the threshold = too weak to quantify, mostly under pKd 3.1 to 4
B1 was tested, and the pKd was “below the threshold”.
With B2 the pKd was “below the threshold”.
B3 was tested, and the pKd was “below the threshold”.

What follows are binders tested against MAGI3_2, Q5TCQ9 (assay: holdup assay). Details: plain residues with an end cap or a label only (N-terminal biotin on a linker: ado-ado).
Sequence of MAGI3_2, Q5TCQ9 (Q5TCQ9 398-503): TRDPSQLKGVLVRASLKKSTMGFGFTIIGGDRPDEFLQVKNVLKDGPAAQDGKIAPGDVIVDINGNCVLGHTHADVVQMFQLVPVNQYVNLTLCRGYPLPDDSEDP
Set-up: key: below the threshold = too weak to quantify, mostly under pKd 3.1 to 4
In the case of B1, the pKd is reported as “below the threshold”.
For B2, the pKd was “below the threshold”.
B3 was tested, and the pKd was “below the threshold”.

What follows are binders tested against PICK1, Q9NRD5 (assay: holdup assay). Details: plain residues with an end cap or a label only (N-terminal biotin on a linker: ado-ado).
Sequence of PICK1, Q9NRD5 (Q9NRD5 17-115): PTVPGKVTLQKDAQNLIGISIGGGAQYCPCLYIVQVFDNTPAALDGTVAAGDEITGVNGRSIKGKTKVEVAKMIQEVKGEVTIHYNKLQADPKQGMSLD
Set-up: key: below the threshold = too weak to quantify, mostly under pKd 3.1 to 4
For B1, the pKd was “below the threshold”.
For B2, the pKd was “below the threshold”.
A pKd of 3.91 was found for B3 in this work.

These binders were tested against FRMPD2_3, Q68DX3 (assay: holdup assay). Details: plain residues with an end cap or a label only (N-terminal biotin on a linker: ado-ado).
Sequence of FRMPD2_3, Q68DX3 (Q68DX3 1073-1166): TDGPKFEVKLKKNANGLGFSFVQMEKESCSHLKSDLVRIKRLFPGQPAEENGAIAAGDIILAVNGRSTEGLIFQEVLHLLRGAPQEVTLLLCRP
Set-up: key: below the threshold = too weak to quantify, mostly under pKd 3.1 to 4
B1 was tested, and the pKd was “below the threshold”.
For B2, the pKd was “below the threshold”.
For B3, the pKd was “below the threshold”.

Each binder was assayed against T1, MPDZ_12, O75970 (assay: holdup assay). Details: plain residues with an end cap or a label only (N-terminal biotin on a linker: ado-ado).
Set-up: key: below the threshold = too weak to quantify, mostly under pKd 3.1 to 4
B1 was tested, and the pKd was “below the threshold”.
B2 was tested, and the pKd was “below the threshold”.
For B3, the pKd was “below the threshold”.

Each binder was assayed against T2, SNTG2, Q9NY99 (assay: holdup assay). Details: plain residues with an end cap or a label only (N-terminal biotin on a linker: ado-ado).
Set-up: key: below the threshold = too weak to quantify, mostly under pKd 3.1 to 4
With B1 the pKd was “below the threshold”.
In the case of B2, the pKd is reported as “below the threshold”.
With B3 the pKd was “below the threshold”.

These binders were tested against Inadl_8, Q8NI35 (assay: holdup assay). Details: plain residues with an end cap or a label only (N-terminal biotin on a linker: ado-ado).
Sequence of Inadl_8, Q8NI35 (Q8NI35 1425-1530): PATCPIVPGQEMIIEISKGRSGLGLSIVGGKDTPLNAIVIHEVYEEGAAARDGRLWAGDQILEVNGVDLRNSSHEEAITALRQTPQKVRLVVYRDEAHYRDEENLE
Set-up: key: below the threshold = too weak to quantify, mostly under pKd 3.1 to 4
B1 was tested, and the pKd was “below the threshold”.
B2 was tested, and the pKd was “below the threshold”.
For B3, the pKd was “below the threshold”.

Each binder was assayed against DLG1_2, Q12959 (assay: holdup assay). Details: plain residues with an end cap or a label only (N-terminal biotin on a linker: ado-ado).
Sequence of DLG1_2, Q12959 (Q12959 314-412): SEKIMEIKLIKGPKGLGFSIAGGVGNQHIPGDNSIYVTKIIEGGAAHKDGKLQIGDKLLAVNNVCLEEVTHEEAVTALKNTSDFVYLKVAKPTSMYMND
Set-up: key: below the threshold = too weak to quantify, mostly under pKd 3.1 to 4
A pKd of 3.88 was found for B1 in this work.
In the case of B2, the pKd is reported as “below the threshold”.
A pKd of 3.52 was found for B3 in this work.

The binders below were run against T3, LRRC7, Q96NW7 (assay: holdup assay). Details: plain residues with an end cap or a label only (N-terminal biotin on a linker: ado-ado).
Set-up: key: below the threshold = too weak to quantify, mostly under pKd 3.1 to 4
In the case of B1, the pKd is reported as “below the threshold”.
B2 was tested, and the pKd was “below the threshold”.
B3 was tested, and the pKd was “below the threshold”.

What follows are binders tested against DLG4_2, P78352 (assay: holdup assay). Details: plain residues with an end cap or a label only (N-terminal biotin on a linker: ado-ado).
Sequence of DLG4_2, P78352 (P78352 155-259): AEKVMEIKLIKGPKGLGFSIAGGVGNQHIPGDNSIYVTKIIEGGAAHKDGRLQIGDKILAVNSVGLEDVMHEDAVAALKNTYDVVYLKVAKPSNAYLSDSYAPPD
Set-up: key: below the threshold = too weak to quantify, mostly under pKd 3.1 to 4
A pKd of 3.61 was found for B1 in this work.
In the case of B2, the pKd is reported as “below the threshold”.
B3 was tested, and the pKd was “below the threshold”.

The binders below were run against FRMPD3, Q5JV73 (assay: holdup assay). Details: plain residues with an end cap or a label only (N-terminal biotin on a linker: ado-ado).
Sequence of FRMPD3, Q5JV73 (Q5JV73 12-100): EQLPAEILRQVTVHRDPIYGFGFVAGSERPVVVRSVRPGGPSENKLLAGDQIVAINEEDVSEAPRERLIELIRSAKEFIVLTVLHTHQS
Set-up: key: below the threshold = too weak to quantify, mostly under pKd 3.1 to 4
B1 was tested, and the pKd was “below the threshold”.
B2 was tested, and the pKd was “below the threshold”.
With B3 the pKd was “below the threshold”.

These binders were tested against PDZRN4_1, Q6ZMN7 (assay: holdup assay). Details: plain residues with an end cap or a label only (N-terminal biotin on a linker: ado-ado).
Sequence of PDZRN4_1, Q6ZMN7 (Q6ZMN7 213-318): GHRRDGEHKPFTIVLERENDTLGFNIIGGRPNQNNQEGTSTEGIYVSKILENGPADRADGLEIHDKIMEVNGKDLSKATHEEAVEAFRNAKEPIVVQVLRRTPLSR
Set-up: key: below the threshold = too weak to quantify, mostly under pKd 3.1 to 4
B1 was tested, and the pKd was “below the threshold”.
B2 was tested, and the pKd was “below the threshold”.
For B3, the pKd was “below the threshold”.

Each binder was assayed against NHERF4_1, Q86UT5-2 (assay: holdup assay). Details: plain residues with an end cap or a label only (N-terminal biotin on a linker: ado-ado).
Sequence of NHERF4_1, Q86UT5-2 (Q86UT5 other isoform, or with tags, fused parts or gaps): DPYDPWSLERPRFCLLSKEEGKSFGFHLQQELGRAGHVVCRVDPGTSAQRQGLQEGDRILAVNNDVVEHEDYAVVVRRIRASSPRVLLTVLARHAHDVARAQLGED
Set-up: key: below the threshold = too weak to quantify, mostly under pKd 3.1 to 4
A pKd of 4.18 was found for B1 in this work.
B2 was tested, and the pKd was “below the threshold”.
A pKd of 3.56 was found for B3 in this work.

Each binder was assayed against T4, SHANK1, Q9Y566 (assay: holdup assay). Details: plain residues with an end cap or a label only (N-terminal biotin on a linker: ado-ado).
Set-up: key: below the threshold = too weak to quantify, mostly under pKd 3.1 to 4
With B1 the pKd was “below the threshold”.
With B2 the pKd was “below the threshold”.
For B3, the pKd was “below the threshold”.

What follows are binders tested against IL16_3, Q14005 (assay: holdup assay). Details: plain residues with an end cap or a label only (N-terminal biotin on a linker: ado-ado).
Sequence of IL16_3, Q14005 (Q14005 1107-1207): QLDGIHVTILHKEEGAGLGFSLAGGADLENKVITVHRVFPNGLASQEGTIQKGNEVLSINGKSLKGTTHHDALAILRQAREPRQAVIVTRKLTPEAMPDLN
Set-up: key: below the threshold = too weak to quantify, mostly under pKd 3.1 to 4
In the case of B1, the pKd is reported as “below the threshold”.
B2 was tested, and the pKd was “below the threshold”.
For B3, the pKd was “below the threshold”.

Each binder was assayed against T5, TJP3_3, O95049 (assay: holdup assay). Details: plain residues with an end cap or a label only (N-terminal biotin on a linker: ado-ado).
Set-up: key: below the threshold = too weak to quantify, mostly under pKd 3.1 to 4
In the case of B1, the pKd is reported as “below the threshold”.
With B2 the pKd was “below the threshold”.
With B3 the pKd was “below the threshold”.

The binders below were run against FRMPD2_1, Q68DX3 (assay: holdup assay). Details: plain residues with an end cap or a label only (N-terminal biotin on a linker: ado-ado).
Sequence of FRMPD2_1, Q68DX3 (Q68DX3 770-861): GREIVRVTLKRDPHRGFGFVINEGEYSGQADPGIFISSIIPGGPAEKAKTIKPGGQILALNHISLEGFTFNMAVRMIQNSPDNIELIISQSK
Set-up: key: below the threshold = too weak to quantify, mostly under pKd 3.1 to 4
With B1 the pKd was “below the threshold”.
B2 was tested, and the pKd was “below the threshold”.
With B3 the pKd was “below the threshold”.

What follows are binders tested against FRMPD4, Q14CM0 (assay: holdup assay). Details: plain residues with an end cap or a label only (N-terminal biotin on a linker: ado-ado).
Sequence of FRMPD4, Q14CM0 (Q14CM0 67-160): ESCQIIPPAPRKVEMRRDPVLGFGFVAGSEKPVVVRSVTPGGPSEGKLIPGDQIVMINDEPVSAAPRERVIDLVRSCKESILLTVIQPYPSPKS
Set-up: key: below the threshold = too weak to quantify, mostly under pKd 3.1 to 4
A pKd of 4.03 was found for B1 in this work.
In the case of B2, the pKd is reported as “below the threshold”.
For B3, the pKd was “below the threshold”.

Each binder was assayed against T6, DFNB31_1, Q9P202 (assay: holdup assay). Details: plain residues with an end cap or a label only (N-terminal biotin on a linker: ado-ado).
Set-up: key: below the threshold = too weak to quantify, mostly under pKd 3.1 to 4
With B1 the pKd was “below the threshold”.
B2 was tested, and the pKd was “below the threshold”.
In the case of B3, the pKd is reported as “below the threshold”.

What follows are binders tested against SCRIB_2, Q14160 (assay: holdup assay). Details: plain residues with an end cap or a label only (N-terminal biotin on a linker: ado-ado).
Sequence of SCRIB_2, Q14160 (Q14160 857-960): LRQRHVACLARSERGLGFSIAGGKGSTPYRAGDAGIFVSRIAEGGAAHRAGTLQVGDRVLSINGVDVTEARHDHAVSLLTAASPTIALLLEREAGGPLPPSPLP
Set-up: key: below the threshold = too weak to quantify, mostly under pKd 3.1 to 4
In the case of B1, the pKd is reported as “below the threshold”.
B2 was tested, and the pKd was “below the threshold”.
With B3 the pKd was “below the threshold”.

These binders were tested against Inadl_5, Q8NI35 (assay: holdup assay). Details: plain residues with an end cap or a label only (N-terminal biotin on a linker: ado-ado).
Sequence of Inadl_5, Q8NI35 (Q8NI35 673-780): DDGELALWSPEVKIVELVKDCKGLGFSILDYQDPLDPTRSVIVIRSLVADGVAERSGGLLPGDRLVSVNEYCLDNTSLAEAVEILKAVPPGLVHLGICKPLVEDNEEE
Set-up: key: below the threshold = too weak to quantify, mostly under pKd 3.1 to 4
For B1, the pKd was “below the threshold”.
For B2, the pKd was “below the threshold”.
For B3, the pKd was “below the threshold”.

Each binder was assayed against MAGI1_1, Q96QZ7 (assay: holdup assay). Details: plain residues with an end cap or a label only (N-terminal biotin on a linker: ado-ado).
Sequence of MAGI1_1, Q96QZ7 (Q96QZ7 1-106): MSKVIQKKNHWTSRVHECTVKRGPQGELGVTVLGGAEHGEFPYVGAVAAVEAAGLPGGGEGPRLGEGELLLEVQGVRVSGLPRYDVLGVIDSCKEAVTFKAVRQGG
Set-up: key: below the threshold = too weak to quantify, mostly under pKd 3.1 to 4
B1 was tested, and the pKd was “below the threshold”.
With B2 the pKd was “below the threshold”.
With B3 the pKd was “below the threshold”.

What follows are binders tested against TJP2_1, Q9UDY2 (assay: holdup assay). Details: plain residues with an end cap or a label only (N-terminal biotin on a linker: ado-ado).
Sequence of TJP2_1, Q9UDY2 (Q9UDY2 24-128): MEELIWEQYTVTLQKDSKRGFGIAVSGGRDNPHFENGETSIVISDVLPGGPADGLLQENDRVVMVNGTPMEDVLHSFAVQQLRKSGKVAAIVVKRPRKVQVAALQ
Set-up: key: below the threshold = too weak to quantify, mostly under pKd 3.1 to 4
With B1 the pKd was “below the threshold”.
With B2 the pKd was “below the threshold”.
B3 was tested, and the pKd was “below the threshold”.

What follows are binders tested against T7, RHPN1, Q8TCX5 (assay: holdup assay). Details: plain residues with an end cap or a label only (N-terminal biotin on a linker: ado-ado).
Set-up: key: below the threshold = too weak to quantify, mostly under pKd 3.1 to 4
For B1, the pKd was “below the threshold”.
A pKd of 3.57 was found for B2 in this work.
For B3, the pKd was “below the threshold”.

What follows are binders tested against LNX1_1, Q8TBB1 (assay: holdup assay). Details: plain residues with an end cap or a label only (N-terminal biotin on a linker: ado-ado).
Sequence of LNX1_1, Q8TBB1 (Q8TBB1 261-371): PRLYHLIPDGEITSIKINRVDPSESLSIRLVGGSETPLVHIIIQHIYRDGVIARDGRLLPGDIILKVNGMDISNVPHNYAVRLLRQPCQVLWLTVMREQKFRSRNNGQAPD
Set-up: key: below the threshold = too weak to quantify, mostly under pKd 3.1 to 4
B1 was tested, and the pKd was “below the threshold”.
With B2 the pKd was “below the threshold”.
B3 was tested, and the pKd was “below the threshold”.

These binders were tested against T8, LIN7C, Q9NUP9 (assay: holdup assay). Details: plain residues with an end cap or a label only (N-terminal biotin on a linker: ado-ado).
Set-up: key: below the threshold = too weak to quantify, mostly under pKd 3.1 to 4
B1 was tested, and the pKd was “below the threshold”.
B2 was tested, and the pKd was “below the threshold”.
For B3, the pKd was “below the threshold”.

Each binder was assayed against T9, SYNJ2BP, P57105 (assay: holdup assay). Details: plain residues with an end cap or a label only (N-terminal biotin on a linker: ado-ado).
Set-up: key: below the threshold = too weak to quantify, mostly under pKd 3.1 to 4
A pKd of 3.58 was found for B1 in this work.
For B2, the pKd was “below the threshold”.
For B3, the pKd was “below the threshold”.

Each binder was assayed against HTRA2, O43464 (assay: holdup assay). Details: plain residues with an end cap or a label only (N-terminal biotin on a linker: ado-ado).
Sequence of HTRA2, O43464 (O43464 355-458): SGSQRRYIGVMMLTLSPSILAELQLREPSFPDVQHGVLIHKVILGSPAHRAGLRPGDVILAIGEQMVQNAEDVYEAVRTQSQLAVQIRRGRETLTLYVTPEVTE
Set-up: key: below the threshold = too weak to quantify, mostly under pKd 3.1 to 4
With B1 the pKd was “below the threshold”.
B2 was tested, and the pKd was “below the threshold”.
For B3, the pKd was “below the threshold”.
